# T1: CD96 (UniProt P40200 22-585, limits assumed)
# T1 construct: whole, on cells
# T1 sequence (looked up): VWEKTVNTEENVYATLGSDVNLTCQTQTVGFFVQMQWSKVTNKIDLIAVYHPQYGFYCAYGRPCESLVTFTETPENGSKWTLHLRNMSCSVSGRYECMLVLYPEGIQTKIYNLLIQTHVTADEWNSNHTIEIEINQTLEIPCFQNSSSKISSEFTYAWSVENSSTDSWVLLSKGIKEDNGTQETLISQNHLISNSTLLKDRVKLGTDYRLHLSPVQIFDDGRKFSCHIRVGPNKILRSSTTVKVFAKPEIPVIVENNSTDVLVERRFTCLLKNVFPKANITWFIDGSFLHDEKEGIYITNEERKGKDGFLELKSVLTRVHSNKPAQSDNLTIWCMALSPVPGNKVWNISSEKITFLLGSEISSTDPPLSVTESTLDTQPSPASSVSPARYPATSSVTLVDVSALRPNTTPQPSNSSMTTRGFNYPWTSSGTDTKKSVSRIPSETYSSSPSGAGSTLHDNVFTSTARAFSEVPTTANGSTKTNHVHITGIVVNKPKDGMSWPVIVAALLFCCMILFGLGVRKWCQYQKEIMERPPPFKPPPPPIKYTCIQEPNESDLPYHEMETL
# T2: CD226 (Homo sapiens (Human), UniProt Q15762 19-336)
# T2 sequence: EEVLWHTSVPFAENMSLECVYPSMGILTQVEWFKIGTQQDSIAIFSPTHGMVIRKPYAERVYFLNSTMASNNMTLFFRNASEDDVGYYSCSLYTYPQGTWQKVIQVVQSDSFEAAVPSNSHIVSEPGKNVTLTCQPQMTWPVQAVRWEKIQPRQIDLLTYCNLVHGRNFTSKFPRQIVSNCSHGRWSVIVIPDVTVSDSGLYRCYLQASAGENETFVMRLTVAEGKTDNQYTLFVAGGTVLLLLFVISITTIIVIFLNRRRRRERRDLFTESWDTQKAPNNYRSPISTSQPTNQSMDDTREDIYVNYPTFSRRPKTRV
# Tests used:
# [1] = target: T3, CD28 on Jurkat/IL2 reporter cells (human, UniProt P10747 19-220); experiment: flow cytometry, Jurkat cells (CD28)
# T3 construct: whole, on cells; Endogenous CD28 of Jurkat cells; also called Jurkats (CD28)
# [2] = target: T4, CD28 endogenously expressed on Jurkat/IL2 reporter cells (human, UniProt P10747 19-220); experiment: flow cytometry, Jurkat cells (CD28); MFI relative to WT CD80 ECD-Fc
# T4 construct: also called Jurkats (CD28)
# [3] = target: T5, human PD-L1, full-length, on CHO cells (human, UniProt Q9NZQ7 19-290); experiment: flow cytometry; PD-L1 MFI over CD28 MFI
# T5 construct: also called huPD-L1; CD274
# T5 sequence (Q9NZQ7 19-290): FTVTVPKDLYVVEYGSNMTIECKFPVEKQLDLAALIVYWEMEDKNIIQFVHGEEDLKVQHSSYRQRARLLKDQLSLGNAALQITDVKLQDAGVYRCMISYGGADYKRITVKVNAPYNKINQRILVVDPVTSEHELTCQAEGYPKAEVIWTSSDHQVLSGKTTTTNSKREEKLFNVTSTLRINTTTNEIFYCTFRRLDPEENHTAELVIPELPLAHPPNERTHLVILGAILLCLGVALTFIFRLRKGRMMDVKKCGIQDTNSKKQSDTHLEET
# [4] = target: T4, CD28 endogenously expressed on …; experiment: flow cytometry, Jurkat cells (CD28)
# [5] = target: T6, human CTLA4 (CTLA-4), full-length, on CHO cells (human, UniProt P16410 36-223); experiment: flow cytometry, CHO/CTLA4 cells; MFI relative to WT CD80 ECD-Fc
# T6 construct: also called huCTLA4
# T6 sequence (P16410 36-223): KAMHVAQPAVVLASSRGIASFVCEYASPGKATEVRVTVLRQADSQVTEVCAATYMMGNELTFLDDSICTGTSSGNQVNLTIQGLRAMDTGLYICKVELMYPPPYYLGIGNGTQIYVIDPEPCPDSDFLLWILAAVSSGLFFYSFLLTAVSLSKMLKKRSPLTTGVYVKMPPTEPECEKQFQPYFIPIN
# [6] = target: T6, human CTLA4 (CTLA-4), full-length, on …; experiment: flow cytometry, CHO cells stably expressing CTLA4
# [7] = target: T5, human PD-L1, full-length, on CHO cells; experiment: flow cytometry, CHO/PD-L1 cells; MFI relative to WT CD80 ECD-Fc
# [8] = target: T5, human PD-L1, full-length, on CHO cells; experiment: flow cytometry, CHO cells stably expressing PD-L1
# [9] = target: T7, CD28 (endogenously expressed on Jurkat/IL2 reporter cells) (human, UniProt P10747 19-220); experiment: flow cytometry, Jurkat/IL2 reporter cells (endogenous CD28), PE anti-human Fc
# T7 construct: Endogenous CD28 of Jurkat cells; also called human CD28
# [10] = target: T8, human PD-L1 (full-length, expressed on CHO cells) (human, UniProt Q9NZQ7 19-290); experiment: flow cytometry, CHO cells expressing huPD-L1, PE anti-human Fc
# T8 construct: also called huPD-L1; CD274
# T8 sequence (Q9NZQ7 19-290): as the sequence (Q9NZQ7 19-290) above
# [11] = target: T1, CD96; experiment: flow cytometry, Fc fusion at 100 nM, CD96-transfected cells
# [12] = target: T2, CD226; experiment: flow cytometry, Fc fusion at 100 nM, CD226-transfected cells
binder,measurement,setting,value
"WT CD80 ECD-Fc H22.6 (Fc fusion, not shown: a dimerising Fc or GST, Control; The token H22.6 is not explained) VIHVTKEVKEVATLSCGHNVSVEELAQTRIYWQKEKKMVLTMMSGDMNIWPEYKNRTIFDITNNLSIVILALRPSDEGTYECVVLKYEKDAFKREHLAEVTLSVKADFPTPSISDFEIPTSNIRRIICSTSGGFPEPHLSWLENGEELNAINTTVSQDPETELYAVSSKLDFNMTTNHSFMCLIKYGHLRVNQTFNWNTTKQEHFPDN",MFI at 33.3 nM,[1],43 MFI
"variant CD80 IgV-Fc M47L (Fc fusion, not shown: small tags and cut ends; a dimerising Fc or GST) VIHVTKEVKEVATLSCGHNVSVEELAQTRIYWQKEKKMVLTMMSGDLNIWPEYKNRTIFDITNNLSIVILALRPSDEGTYECVVLKYEKDAFKREHLAEVTLSVKAD",Fold change to WT CD80,[2],0.4 fold
same,Ratio of PDL1:CD28,[3],6.1 ratio
same,MFI at 33.3 nM,[4],309 MFI
same,Fold change to WT CD80,[5],0.8 fold
same,MFI at 33.3 nM,[6],30800 MFI
same,Fold change to WT CD80,[7],14.8 fold
same,MFI at 33.3 nM,[8],1900 MFI
"variant CD80 IgV-Fc L85Q (Fc fusion, not shown: small tags and cut ends; a dimerising Fc or GST) VIHVTKEVKEVATLSCGHNVSVEELAQTRIYWQKEKKMVLTMMSGDMNIWPEYKNRTIFDITNNLSIVILALRPSDEGTYECVVQKYEKDAFKREHLAEVTLSVKAD",MFI at 33.3 nM,[4],35 MFI
same,MFI at 33.3 nM,[6],3000 MFI
same,MFI at 33.3 nM,[8],97 MFI
"variant CD80 IgV-Fc E35D/D46V/M47L/V68M (Fc fusion, not shown: small tags and cut ends; a dimerising Fc or GST) VIHVTKEVKEVATLSCGHNVSVEELAQTRIYWQKDKKMVLTMMSGVLNIWPEYKNRTIFDITNNLSIMILALRPSDEGTYECVVLKYEKDAFKREHLAEVTLSVKAD",MFI at 33.3 nM,[6],34300 MFI
same,MFI at 33.3 nM,[8],29300 MFI
"variant CD80 IgV-Fc Q33R/E35D/K37E/M47V/L85Q (Fc fusion, not shown: a dimerising Fc or GST) VIHVTKEVKEVATLSCGHNVSVEELAQTRIYWRKDKEMVLTMMSGDVNIWPEYKNRTIFDITNNLSIVILALRPSDEGTYECVVQKYEKDAFKREHLAEVTLSVKAD",MFI at 33.3 nM,[9],258 MFI
same,MFI at 33.3 nM,[10],44400 MFI
"variant CD80 IgV-Fc E35D/D46V/V68M/L85Q (Fc fusion, not shown: small tags and cut ends; a dimerising Fc or GST) VIHVTKEVKEVATLSCGHNVSVEELAQTRIYWQKDKKMVLTMMSGVMNIWPEYKNRTIFDITNNLSIMILALRPSDEGTYECVVQKYEKDAFKREHLAEVTLSVKAD",MFI at 33.3 nM,[6],32200 MFI
same,MFI at 33.3 nM,[8],23600 MFI
"variant CD80 IgV-Fc D46V/M47L (Fc fusion, not shown: small tags and cut ends; a dimerising Fc or GST) VIHVTKEVKEVATLSCGHNVSVEELAQTRIYWQKEKKMVLTMMSGVLNIWPEYKNRTIFDITNNLSIVILALRPSDEGTYECVVLKYEKDAFKREHLAEVTLSVKAD",MFI at 33.3 nM,[6],49700 MFI
same,MFI at 33.3 nM,[8],3900 MFI
"variant CD80 IgV-Fc E35D/D46V/V68M (Fc fusion, not shown: small tags and cut ends; a dimerising Fc or GST) VIHVTKEVKEVATLSCGHNVSVEELAQTRIYWQKDKKMVLTMMSGVMNIWPEYKNRTIFDITNNLSIMILALRPSDEGTYECVVLKYEKDAFKREHLAEVTLSVKAD",MFI at 33.3 nM,[6],31200 MFI
same,MFI at 33.3 nM,[8],26100 MFI
"variant CD80 IgV-Fc E35D/D46V (Fc fusion, not shown: small tags and cut ends; a dimerising Fc or GST) VIHVTKEVKEVATLSCGHNVSVEELAQTRIYWQKDKKMVLTMMSGVMNIWPEYKNRTIFDITNNLSIVILALRPSDEGTYECVVLKYEKDAFKREHLAEVTLSVKAD",MFI at 33.3 nM,[6],50100 MFI
same,MFI at 33.3 nM,[8],3970 MFI
"variant CD80 IgV-Fc S15P/Q33L/E35D/M47L/L85Q (Fc fusion, not shown: a dimerising Fc or GST) VIHVTKEVKEVATLPCGHNVSVEELAQTRIYWLKDKKMVLTMMSGDLNIWPEYKNRTIFDITNNLSIVILALRPSDEGTYECVVQKYEKDAFKREHLAEVTLSVKAD",MFI at 33.3 nM,[9],266 MFI
"variant CD80 IgV-Fc Q33K/E35D/M47V/K89E/K93R (Fc fusion, not shown: a dimerising Fc or GST) VIHVTKEVKEVATLSCGHNVSVEELAQTRIYWKKDKKMVLTMMSGDVNIWPEYKNRTIFDITNNLSIVILALRPSDEGTYECVVLKYEEDAFRREHLAEVTLSVKAD",MFI at 33.3 nM,[9],276 MFI
same,MFI at 33.3 nM,[10],39100 MFI
"variant CD80 IgV-Fc E35D/D46V/M47L (Fc fusion, not shown: small tags and cut ends; a dimerising Fc or GST) VIHVTKEVKEVATLSCGHNVSVEELAQTRIYWQKDKKMVLTMMSGVLNIWPEYKNRTIFDITNNLSIVILALRPSDEGTYECVVLKYEKDAFKREHLAEVTLSVKAD",MFI at 33.3 nM,[6],45000 MFI
same,MFI at 33.3 nM,[8],7990 MFI
"variant CD80 IgV-Fc D46V/V68M/L85Q (Fc fusion, not shown: small tags and cut ends; a dimerising Fc or GST) VIHVTKEVKEVATLSCGHNVSVEELAQTRIYWQKEKKMVLTMMSGVMNIWPEYKNRTIFDITNNLSIMILALRPSDEGTYECVVQKYEKDAFKREHLAEVTLSVKAD",MFI at 33.3 nM,[6],7570 MFI
same,MFI at 33.3 nM,[8],4170 MFI
"variant CD80 IgV-Fc E35D/M47I/K54R/L85E (Fc fusion, not shown: a dimerising Fc or GST) VIHVTKEVKEVATLSCGHNVSVEELAQTRIYWQKDKKMVLTMMSGDINIWPEYRNRTIFDITNNLSIVILALRPSDEGTYECVVEKYEKDAFKREHLAEVTLSVKAD",MFI at 33.3 nM,[10],36900 MFI
"variant CD80 IgV-Fc Q27H/E35D/M47L/L85Q/R94Q/E95K (Fc fusion, not shown: a dimerising Fc or GST) VIHVTKEVKEVATLSCGHNVSVEELAHTRIYWQKDKKMVLTMMSGDLNIWPEYKNRTIFDITNNLSIVILALRPSDEGTYECVVQKYEKDAFKQKHLAEVTLSVKAD",MFI at 33.3 nM,[9],282 MFI
same,MFI at 33.3 nM,[10],36100 MFI
"variant CD80 IgV-Fc M47L/L85Q (Fc fusion, not shown: small tags and cut ends; a dimerising Fc or GST) VIHVTKEVKEVATLSCGHNVSVEELAQTRIYWQKEKKMVLTMMSGDLNIWPEYKNRTIFDITNNLSIVILALRPSDEGTYECVVQKYEKDAFKREHLAEVTLSVKAD",MFI at 33.3 nM,[4],88.1 MFI
same,MFI at 33.3 nM,[8],5800 MFI
"variant CD80 IgV-Fc D46V/M47L/V68M/L85Q (Fc fusion, not shown: small tags and cut ends; a dimerising Fc or GST) VIHVTKEVKEVATLSCGHNVSVEELAQTRIYWQKEKKMVLTMMSGVLNIWPEYKNRTIFDITNNLSIMILALRPSDEGTYECVVQKYEKDAFKREHLAEVTLSVKAD",MFI at 33.3 nM,[6],32500 MFI
same,MFI at 33.3 nM,[8],29700 MFI
"variant CD155 IgV-Fc L104E (Fc fusion, not shown: a dimerising Fc or GST) WPPPGTGDVVVQAPTQVPGFLGDSVTLPCYLQVPNMEVTHVSQLTWARHGESGSMAVFHQTQGPSYSESKRLEFVAARLGAELRNASLRMFGLRVEDEGNYTCEFVTFPQGSRSVDIWLRVL",MFI at 100 nM,[11],1560 MFI
"variant CD155 IgV-Fc S42C/S52L (Fc fusion, not shown: a dimerising Fc or GST) WPPPGTGDVVVQAPTQVPGFLGDSVTLPCYLQVPNMEVTHVCQLTWARHGELGSMAVFHQTQGPSYSESKRLEFVAARLGAELRNASLRMFGLRVEDEGNYTCLFVTFPQGSRSVDIWLRVL",MFI at 100 nM,[12],2150 MFI
same,MFI at 100 nM,[11],1480 MFI
"variant CD155 IgV-Fc L104Q (Fc fusion, not shown: a dimerising Fc or GST) WPPPGTGDVVVQAPTQVPGFLGDSVTLPCYLQVPNMEVTHVSQLTWARHGESGSMAVFHQTQGPSYSESKRLEFVAARLGAELRNASLRMFGLRVEDEGNYTCQFVTFPQGSRSVDIWLRVL",MFI at 100 nM,[12],3790 MFI
same,MFI at 100 nM,[11],1540 MFI
"variant CD155 IgV-Fc S42G (Fc fusion, not shown: a dimerising Fc or GST) WPPPGTGDVVVQAPTQVPGFLGDSVTLPCYLQVPNMEVTHVGQLTWARHGESGSMAVFHQTQGPSYSESKRLEFVAARLGAELRNASLRMFGLRVEDEGNYTCLFVTFPQGSRSVDIWLRVL",MFI at 100 nM,[12],2450 MFI
same,MFI at 100 nM,[11],1700 MFI
"variant CD155 IgV-Fc S52M/V57L (Fc fusion, not shown: a dimerising Fc or GST) WPPPGTGDVVVQAPTQVPGFLGDSVTLPCYLQVPNMEVTHVSQLTWARHGEMGSMALFHQTQGPSYSESKRLEFVAARLGAELRNASLRMFGLRVEDEGNYTCLFVTFPQGSRSVDIWLRVL",MFI at 100 nM,[12],2430 MFI
same,MFI at 100 nM,[11],1860 MFI
